Experimental data as given in the Human Domainome abundance scans (Beltran et al. 2025).

B1: Dystrobrevin alpha, residues 235 to 294; numbered along this chain, Q9Y4J8 (parent)
chain: ENVFHPVECSYCHSESMMGFRYRCQQCHNYQLCQDCFWRGHAGGSHSNQHQMKEYTSWKS

Variants of: B1
Assay: abundance fitness (aPCA) (normalised: wild type 0, dead -1); higher = more abundant; growth selection in yeast, the domain comes from the species named
Settings: Homo sapiens

Abundance fitness of substitutions, site by site:
H28: L 0.002 | P 0.066 | C -0.093 | N 0.152 | V 0.06 | E 0.063 | G -0.1 | D 0.209 | M -0.008 | F -0.112 | K 0.122 | T 0.1 | I 0.033 | S 0.027 | W -0.16 | A 0.145 | R -0.002
N29: H -0.075 | K -0.156 | D 0.052 | A -0.028 | Y -0.204 | M -0.044 | G -0.058 | E -0.152 | S -0.063 | R -0.171 | W -0.183 | T -0.213 | C 0.186 | P -0.388 | Q 0.1 | L -0.125 | V -0.281 | F 0.007
C36: W -0.94 | M -0.723 | Q -0.723 | P -0.565 | Y -0.734 | S -0.992 | V -0.873 | L -0.817 | I -0.733 | F -0.994 | G -0.596 | D -0.624 | R -0.695 | A -0.881 | K -0.192
C24: V -0.838 | G -0.736 | L -0.911 | W -1.07 | Q -0.561 | N -0.691 | I -0.822 | H -0.887 | T -0.752 | Y -0.935 | K -0.928 | R -0.97 | E -0.615 | M -0.731 | P -1.08 | D -0.441 | F -1.04 | S -0.851
M17: Y -0.183
R23: L 0.002 | E 0.03 | D -0.022 | Q 0.034 | G -0.158 | S 0.066 | A -0.049 | Y -0.138 | M 0.006 | T -0.008 | V 0.074 | W -0.276 | P -0.509 | C 0.176 | F -0.034 | H 0.201 | K 0.147 | I -0.05
R21: W -0.02 | L 0.058 | E -0.07 | M 0.063 | I -0.128 | K 0.047 | G -0.15 | F -0.188 | Y -0.394 | V -0.207 | T 0.088 | C -0.092 | D -0.436 | H 0.165 | A -0.02 | S 0.138
D35: P 0.025 | M -0.022 | Y 0.011 | N 0.069 | H 0.001 | V -0.084 | Q -0.204 | A -0.093 | G -0.235 | S -0.033 | I -0.113 | R -0.089 | W -0.33 | C -0.113 | F 0.197
Q25: F -0.325 | Y -0.327 | T -0.004 | K -0.003 | P -0.426 | L -0.026 | C -0.102 | R -0.158 | H -0.193 | E 0.078 | A -0.213 | S -0.159 | D -0.117 | N -0.128 | M 0.061 | W -0.662 | I -0.208 | G -0.202 | V 0.019
M18: G 0.064 | W -0.266 | S 0.133 | P 0.116 | I -0.021 | Y 0.075 | F 0.126 | L 0.09 | Q 0.156 | C -0.189 | K 0.029 | R 0.111 | H 0.163 | N 0.101 | A 0.199 | T 0.075 | V 0.155 | D 0.129 | E 0.103
Y22: W -0.086 | V -0.051 | D -0.814 | G -0.658 | K -0.263 | P -0.904 | Q -0.754 | M -0.142 | S -0.405 | N -0.364 | H -0.053 | I -0.337 | T -0.437 | C -0.409 | R -0.241 | L -0.3 | A -0.13 | E -0.675
C27: Q -0.943 | K -0.745 | M -0.814 | F -0.434 | P -0.578 | A -0.727 | N -0.841 | L -0.998 | H -0.814 | R -0.876 | V -0.85 | W -0.838 | E -0.717 | D -0.667 | T -0.877
Q31: L -0.153 | W 0.11 | N -0.202 | F 0.119 | C -0.151 | R -0.318 | P -0.536 | S -0.007 | I -0.053 | V 0.098 | T 0.083 | K -0.318 | Y -0.034 | D -0.012 | A -0.085 | E 0.112
C33: M -0.823 | A -0.495 | L -0.874 | H -0.659 | E -0.541 | V -0.836 | F -0.625 | I -0.884 | D -0.894 | W -0.811 | T -0.944 | G -0.78 | S -0.658 | Y -0.954 | Q -0.609 | R -0.675 | N -0.592 | K -0.983
Q34: P -0.163 | G -0.027 | V -0.169 | D -0.267 | N -0.146 | K 0.127 | R -0.047 | E 0.044 | T -0.19 | Y -0.147 | L -0.423 | A -0.053 | H -0.156 | F -0.394 | W -0.606 | M -0.302 | S -0.087
L32: C 0.038 | D -0.356 | M -0.793 | S -0.308 | W -0.751 | G -0.511 | K -0.538 | E -0.395 | R -0.647 | T 0.053 | V -0.102 | A -0.656 | Q -0.455 | Y -0.38
G19: S 0.089 | T -0.147 | I -0.256 | H 0.003 | D -0.046 | K 0.129 | Q 0.046 | L -0.134 | E -0.103 | N -0.027 | A 0.176 | V -0.13 | Y -0.248 | M -0.167 | P 0.018 | C -0.191 | F -0.219
F20: I 0.061 | C 0.14 | W 0.137 | G 0.163 | S 0.237 | N 0.217 | H 0.151 | P 0.307 | Y 0.045 | V 0.104 | K 0.31 | D 0.106 | Q 0.134 | A 0.224 | T 0.15 | M -0.004
Y30: D -0.508 | P -0.638 | G -0.553 | F -0.183 | E -0.378 | R -0.301 | V -0.206 | W -0.458 | T -0.426 | S -0.478 | L -0.36 | C -0.554 | K -0.519 | M -0.288 | Q -0.559 | A -0.398 | H -0.53
F37: P -0.62 | C -0.473 | E -0.101 | G -0.348 | H -0.092 | Q -0.003 | D -0.488 | I -0.087 | A -0.043 | N -0.401 | M 0.081 | L -0.232
Q26: V 0.273 | E -0.058 | F -0.283 | N 0.022 | A 0.006 | H -0.315 | R -0.232 | D 0.341 | T 0.012 | I 0.011 | S -0.024 | L -0.287 | P -0.545 | K -0.288 | C -0.301 | G -0.277 | M -0.355 | W -0.498
